This note sets out measurements from publication PMC9152305.

For assay [1], the target named is SARS-CoV-2 Omicron BA.2 spike extracellular domain trimer (SARS-CoV-2 Omicron BA.2) (UniProt P0DTC2). In words: cryo-EM structure.
Assay [2] has the same target. In words: BLI. In general terms: Biolayer interferometry detects binding as a change in optical thickness at a sensor tip.

In turn, JMB2002 Fab came in with a stoichiometry N (Fab per spike trimer) in assay [1] of 3. Besides, in assay [2], the dissociation constant Kd amounted to 2.6 nM.
Take JMB2002 IgG (antibody): the dissociation constant Kd in assay [2] came to 0.3 nM. This lies in the sub-nanomolar range.

As a reminder, the Kd is the constant that tells how readily two partners part at equilibrium. High values mean lower affinity, low ones higher affinity.
